# Patent publication US20040191240
# B1: Rho kinase fragment (aa 1-543, Upstate Biotechnology) (protein)
# chain: MSRPPPTGKMPGAPETAPGDGAGASRQRKLEALIRDPRSPINVESLLDGLNSLVLDLDFPALRKNKNIDNFLNRYEKIVKKIKGLQMKAEDYDVVKVIGRGAFGEVQLVRHKASQKVYAMKLLSKFEMIKRSDSAFFWEERDIMAFANSPWVVQLFYAFQDDRYLYMVMEYMPGGDLVNLMSNYDVPEKWAKFYTAEVVLALDAIHSMGLIHRDVKPDNMLLDKHGHLKLADFGTCMKMDETGMVHCDTAVGTPDYISPEVLKSQGGDGFYGRECDWWSVGVFLYEMLVGDTPFYADSLVGTYSKIMDHKNSLCFPEDAEISKHAKNLICAFLTDREVRLGRNGVEEIRQHPFFKNDQWHWDNIRETAAPVVPELSSDIDSSNFDDIEDDKGDVETFPIPKAFVGNQLPFIGFTYYRENLLLSDSPSCRENDSIQSRKNEESQEIQKKLYTLEEHLSNEMQAKEELEQKCKSVNTRLEKTAKELEEEITLRKSVESALRQLEREKALLQHKNAEYQRKADHEADKKRNLENDVNSLKDQLEDL
# Biological target: recombinant full-length p21 (Santa Cruz)
# Sequence (chain, as listed by the source): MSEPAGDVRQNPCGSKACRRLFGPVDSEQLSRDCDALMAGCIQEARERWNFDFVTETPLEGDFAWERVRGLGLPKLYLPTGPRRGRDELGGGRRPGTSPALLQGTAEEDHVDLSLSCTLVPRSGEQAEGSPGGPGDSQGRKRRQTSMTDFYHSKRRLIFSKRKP
protein,measurement,value
B1,"Rho-kinase activity toward S6 kinase substrate peptide ([gamma-32P]ATP, scintillation counting), in vitro",the estimated ICso value was 1.43 nM
